# Reference: patent publication US8283180B2, “Periodic acid-schiff staining with detection in the infrared range” (Amicus Therapeutics, Inc., priority 2007, dated 2012)
# B1: diastase: α-amylase type VI-B from porcine pancreas; breaks down glycogen, used as negative control for PAS staining (protein, UniProt P00690 16-511, looked up)
# Pancreatic alpha-amylase: QYAPQTQSGRTSIVHLFEWRWVDIALECERYLGPKGFGGVQVSPPNENIVVTNPSRPWWERYQPVSYKLCTRSGNENEFRDMVTRCNNVGVRIYVDAVINHMCGSGAAAGTGTTCGSYCNPGNREFPAVPYSAWDFNDGKCKTASGGIESYNDPYQVRDCQLVGLLDLALEKDYVRSMIADYLNKLIDIGVAGFRIDASKHMWPGDIKAVLDKLHNLNTNWFPAGSRPFIFQEVIDLGGEAIQSSEYFGNGRVTEFKYGAKLGTVVRKWSGEKMSYLKNWGEGWGFMPSDRALVFVDNHDNQRGHGAGGASILTFWDARLYKVAVGFMLAHPYGFTRVMSSYRWARNFVNGQDVNDWIGPPNNNGVIKEVTINADTTCGNDWVCEHRWRQIRNMVWFRNVVDGQPFANWWANGSNQVAFGRGNRGFIVFNNDDWQLSSTLQTGLPGGTYCDVISGDKVGNSCTGIKVYVSSDGTAQFSISNSAEDPFIAIHAESKL
# Test system: PM-12 cells
# Assay: PAS staining of Pompe fibroblasts with IR fluorescence detection after diastase digestion
# Type: cell-based, human
# Settings: 20,000 cells/well; 0.1% diastase, 5 to 60 minutes; detection at 800 nm; FIG. 2
# Procedure: PM-11 Pompe fibroblasts were obtained from Dr. W. J. Kleijer, Department of Cell Biology & Genetics, Erasmus University, The Netherlands. PM-12 Pompe fibroblasts were purchased from Coriell (catalog #GM03329). CRL-2076 fibroblasts (negative control) were purchased from American Type Culture Collection (Manassas, Va.). All fibroblast lines were routinely cultured at 37° C., 5% CO2, in growth medium consisting of Dulbecco's Modified […] Medium containing 15% fetal bovine serum (Hyclone, Logan, Utah), 100 U/mL penicillin; 100 μg/mL streptomycin, and 2 mM L-glutamine.
# Prior to the assay, borosilicate coverslip glass bottom 96-well black plates (Nunc; catalog #164588) are coated with superfibronectin (Sigma). […] Briefly, 100 μL of 5 μg/mL superfibronectin (Sigma) is pipetted into each well and the plate is incubated at 37° C. for 2 hours. […]
# Following the overnight incubation, the plate is read on a laser-based Odyssey IR scanner (Li-Cor, Inc.) at emission wavelengths of 700 nm (near-IR) or 800 nm (IR). The detector counts IR and near-IR fluorescence emissions independently or simultaneously from the samples, and reports these counts as arbitrary units. The detector scans across an entire microtiter plate, thus can read two fluorophores from any microtiter formatted sample array (96-well, 384-well, or other) within a few minutes. […]
molecule,measurement,value
B1,time-dependent decrease in PAS stain IR fluorescence signal,about 2 fold
